What all share (assay): cell-based or functional assay
The target in assay [1] is LBR tagged C-terminally with miniIAA7-mEGFP (human; Arabidopsis thaliana) (UniProt Q14739).
The target of assay [2] is NMIIa (MYH9) tagged N-terminally with miniIAA7-mEGFP (Arabidopsis thaliana; human) (UniProt P35579).
In assay [3] the target is Non-nuclear targets expressed at low levels (seipin, NPC1, PEX3 and Glut1), tagged with miniIAA7-mEGFP.
For assay [4], the target named is all targets (endogenous loci tagged homozygously with miniIAA7-mEGFP N- or C-terminally).
Assay [5] deals with seipin tagged with miniAID-mEGFP (miniAID = AtIAA17 amino acid residues 68-132) (human; Arabidopsis thaliana) (UniProt Q96G97).
In assay [6] the target is seipin tagged with miniIAA7-mEGFP (miniIAA7 = AtIAA7 amino acids 37-104) (human; Arabidopsis thaliana) (UniProt Q96G97).

The source of these data is US20220041665A1, “POLYNUCLEOTIDE AND USES THEREOF” (Helsingin yliopisto, priority 2019, published 2022).

B1: Arabidopsis thaliana AFB2 (AtAFB2), auxin perceptive F-box protein, tagged with mCherry (receptor, not shown: large carriers)
chain: MNYFPDEVIEHVFDFVTSHKDRNAISLVCKSWYKIERYSRQKVFIGNCYAINPERLLRRFPCLKSLTLKGKPHFADFNLVPHEWGGFVLPWIEALARSRVGLEELRLKRMVVTDESLELLSRSFVNFKSLVLVSCEGFTTDGLASIAANCRHLRDLDLQENEIDDHRGQWLSCFPDTCTTLVTLNFACLEGETNLVALERLVARSPNLKSLKLNRAVPLDALARLMACAPQIVDLGVGSYENDPDSESYLKLMAVIKKCTSLRSLSGFLEAAPHCLSAFHPICHNLTSLNLSYAAEIHGSHLIKLIQHCKKLQRLWILDSIGDKGLEVVASTCKELQELRVFPSDLLGGGNTAVTEEGLVAISAGCPKLHSILYFCQQMTNAALVTVAKNCPNFIRFRLCILEPNKPDHVTSQPLDEGFGAIVKACKSLRRLSLSGLLTDQVFLYIGMYANQLEMLSIAFAGDTDKGMLYVLNGCKKMKKLEIRDSPFGDTALLADVSKYETMRSLWMSSCEVTLSGCKRLAEKAPWLNVEIINENDNNRMEENGHEGRQKVDKLYLYRTVVGTRMDAPPFVWILGGSGG
With B1, the target protein level at 1 h IAA, FACS of GFP in assay [1] is under 12%; in assay [2], under 12%; in assay [3], 2 to 5%. Besides, in assay [4], the target protein level at 0 h IAA (basal degradation), FACS of GFP (% levels of control) lay in the range of 86 to 109. The molecule further returned a target protein level at 16 h IAA, FACS of GFP in assay [4] of 2 to 5 % levels. The same molecule returned a target protein level before IAA addition (0 h IAA), FACS of GFP, compared to OsTIR1 in assay [5] of 5 fold. Also, the auxin-inducible protein reduction at 1 h IAA, FACS of GFP, compared to miniAID in assay [6] was determined as 3 fold.

B2: TIR1 derived from Oryza sativa (OsTIR1) (receptor, UniProt Q7XVM8 1-575, looked up)
chain: MTYFPEEVVEHIFSFLPAQRDRNTVSLVCKVWYEIERLSRRGVFVGNCYAVRAGRVAARFPNVRALTVKGKPHFADFNLVPPDWGGYAGPWIEAAARGCHGLEELRMKRMVVSDESLELLARSFPRFRALVLISCEGFSTDGLAAVASHCKLLRELDLQENEVEDRGPRWLSCFPDSCTSLVSLNFACIKGEVNAGSLERLVSRSPNLRSLRLNRSVSVDTLAKILLRTPNLEDLGTGNLTDDFQTESYFKLTSALEKCKMLRSLSGFWDASPVCLSFIYPLCAQLTGLNLSYAPTLDASDLTKMISRCVKLQRLWVLDCISDKGLQVVASSCKDLQELRVFPSDFYVAGYSAVTEEGLVAVSLGCPKLNSLLYFCHQMTNAALVTVAKNCPNFTRFRLCILEPGKPDVVTSQPLDEGFGAIVRECKGLQRLSISGLLTDKVFMYIGKYAKQLEMLSIAFAGDSDKGMMHVMNGCKNLRKLEIRDSPFGDAALLGNFARYETMRSLWMSSCNVTLKGCQVLASKMPMLNVEVINERDGSNEMEENHGDLPKVEKLYVYRTTAGARDDAPNFVKIL
In assay [4], B2 came in with a basal degradation at 0 h IAA, FACS of GFP of 12 to 37% and a depletion efficiency at 16 h IAA, FACS of GFP of 2 to 7%.
